Data on three substances can be found in publication PMC9504841.

In assay [1] the target is MPER_(664–690) peptide (HIV-1). Nature of the assay: ITC; Fab at 3 μM titrated with 12 injections of 40 μM peptide; VP-ITC, 25 °C; 10 mM sodium phosphate pH 7.5, 150 mM NaCl, 10% glycerol, 5 mM DPC; one-site binding model. Background: Isothermal titration calorimetry measures the heat released or taken up as one component is titrated into another.
Assay [2] deals with native HIV-1 Env (PVO, clone 4) on virions (HIV-1).

Regarding 10E8-2R Fab (LC S30R/N52R), in assay [1], the Kd – broadly, the constant that tells how readily two partners part at equilibrium – was 46.3 nM; the dH is -6.24 kcal/mol; the stoichiometry N (in general, the number of molecules, sites or subunits per partner or assembly) was 1.17.
As for 10E8-2RF Fab (LC S30R/N52R, HC S100cF), in assay [2], the pseudovirus neutralisation (cell-entry inhibition, TZM-bl cells; JRCSF and PVO.4 PsV): potency of the Fab against the parental Fab 10E8-WT was determined as 50 fold. Besides, in assay [1], the dissociation constant (Kd) was found to be 41.3 nM, the dH is -2.3 kcal/mol and the stoichiometry N stood at 1.16.
In assay [1], 10E8-WT Fab displayed a Kd of 32.4 nM, a dH of -6.73 kcal/mol and a stoichiometry N of 1.12.
